These results are taken from patent EP2283866A2.

The target of this test is human HER2 (ErbB2) (human) (UniProt P04626). As to the kind of experiment: cell-based or functional assay.

The substance “murine monoclonal antibody 4D5 (ATCC CRL 10463)” gave an inhibition of SK-BR-3 relative cell proliferation (crystal violet, 72 h, 5 ug/ml antibody) of 56% and a maximum inhibition of cell proliferation in SK-BR-3 cells of 66%.
